Experimental data from publication PMC6436938 (Molecular Cell, 2019).

Target: importin β (Impβ) (human, UniProt Q14974 1-876)
Test: pull-down

Sequence of importin β (Impβ) (Q14974 whole entry): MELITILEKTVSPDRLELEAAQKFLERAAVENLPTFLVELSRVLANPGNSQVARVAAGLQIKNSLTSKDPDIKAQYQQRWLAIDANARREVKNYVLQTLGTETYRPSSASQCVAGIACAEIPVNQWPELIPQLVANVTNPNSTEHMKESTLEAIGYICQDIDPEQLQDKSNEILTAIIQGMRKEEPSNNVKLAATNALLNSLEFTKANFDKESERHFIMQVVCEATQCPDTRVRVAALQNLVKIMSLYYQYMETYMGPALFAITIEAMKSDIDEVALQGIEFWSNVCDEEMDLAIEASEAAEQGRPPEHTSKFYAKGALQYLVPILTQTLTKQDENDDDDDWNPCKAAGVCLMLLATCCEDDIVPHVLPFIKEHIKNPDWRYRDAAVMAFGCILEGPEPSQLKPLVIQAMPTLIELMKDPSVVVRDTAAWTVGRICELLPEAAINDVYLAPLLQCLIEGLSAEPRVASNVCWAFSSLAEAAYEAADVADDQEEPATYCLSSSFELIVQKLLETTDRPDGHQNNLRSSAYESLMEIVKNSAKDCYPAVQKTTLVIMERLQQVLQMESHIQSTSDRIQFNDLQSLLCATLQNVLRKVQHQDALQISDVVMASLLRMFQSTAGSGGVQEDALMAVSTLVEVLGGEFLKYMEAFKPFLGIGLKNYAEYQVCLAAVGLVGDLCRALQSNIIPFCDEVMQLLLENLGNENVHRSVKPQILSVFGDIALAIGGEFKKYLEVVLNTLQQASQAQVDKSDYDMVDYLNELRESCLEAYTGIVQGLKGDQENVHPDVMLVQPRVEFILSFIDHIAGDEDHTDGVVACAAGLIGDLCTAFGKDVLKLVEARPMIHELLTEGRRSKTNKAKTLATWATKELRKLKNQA

Row | binding result | Binder
1 | binds | His-tagged H1.0 C-terminal domain (H1C, aas 96–194) (domain or fragment, human, UniProt P07305 96-194, looked up) AKSDEPKKSVAFKKTKKEIKKVATPKKASKPKKAASKAPTKKPKATPVKKAKKKLAATPKKAKKPKTVKAKPVKASKPKKAKPVKPKAKSSAKRAGKKK
2 | binds | Nsp1_FG (497–608), construct containing five FG repeats from nucleoporin Nsp1 (domain or fragment) not shown
